Test results as given in patent US20210355194A1 (TWIST BIOSCIENCE, published 2021).
Changes are numbered by the printed parent chain.

B1: variant 5-64 (Fc fusion)
VHH: EVQLVESGGGLVQPGGSLRLSCAASGTSISNRVMGWFRQAPGKERELVARIYTGGDTLYADSVKGRFTISADNSKNTAYLQMNSLKPEDTAVYYCAARKIYRSLSYYGDYDWGQGTLVTVSS
B2: variant 5-16 (Fc fusion)
VHH: EVQLVESGGGLVQPGGSLRLSCAASGRTHSIYPMGWFRQAPGKERELVAAIHSGGATVYADSVKGRFTISADNSKNTAYLQMNSLKPEDTAVYYCAARRWIPPGPIWGQGTLVTVSS
B3: variant 5-27 (Fc fusion)
VHH: EVQLVESGGGLVQPGGSLRLSCAASGRANSINWMGWFRQAPGKEREFVATITPGGNTNYADSVKGRFTISADNSKNTAYLQMNSLKPEDTAVYYCAAAAGSTWYGTLYEYDWGQGTLVTVSS
B4: variant 5-51 (Fc fusion)
VHH: B3 VHH with A28P, E46Q, Q81L, S101T
B5: variant 5-56 (Fc fusion)
VHH: EVQLVESGGGLVQPGGSLRLSCAASGRTFSSNMGWFRQAPGKEREFVARIFGGDRTLYADSVKGRFTISADNSKNTAYLQMNSLKPEDTAVYYCADINGDWGQGTLVTVSS
B6: variant 5-60 (Fc fusion)
VHH: EVQLVESGGGLVQPGGSLRLSCAASGRSFSSHRMGWFRQAPGKEREFVAAIMWSGSHRNYADSVKGRFTISADNSKNTAYLQMNSLKPEDTAVYYCAAIAYEEGVYRWDWGQGTLVTVSS
B7: variant 5-32 (Fc fusion)
VHH: EVQLVESGGGLVQPGGSLRLSCAASGFTPDNYAMGWFRQAPGKEREFVAALGWSGVTTYHYYADSVKGRFTISADNSKNTAYLQMNSLKPEDTAVYYCASDESDAANWGQGTLVTVSS
B8: variant 5-17 (Fc fusion)
VHH: EVQLVESGGGLVQPGGSLRLSCAASGPTFSIYAMGWFRQAPGKEREFVAGIRWSDVYTQYADSVKGRFTISADNSKNTAYLQMNSLKPEDTAVYYCALDIDYRDWGQGTLVTVSS
B9: variant 5-39 (Fc fusion)
VHH: B8 VHH with P27V, F29L, S30D, I31L, S54T, V56A, Q59E, L98V
B10: variant 5-42 (Fc fusion)
VHH: EVQLVESGGGLVQPGGSLRLSCAASGFTPDDYAMGWFRQAPGKEREFVASIGYSGRSNSYNYYADSVKGRFTISADNSKNTAYLQMNSLKPEDTAVYYCAIAHGSSTYNWGQGTLVTVSS
B11: variant 5-28 (Fc fusion)
VHH: EVQLVESGGGLVQPGGSLRLSCAASGGTFSVFAMGWFRQVPGKERELVAEITAGGSTYYADSVKGRFTISADNSKNTAYLQMNSLKPEDTAVYYCAVDGPFGWGQGTLVTVSS
B12: variant 5-13 (Fc fusion)
VHH: EVQLVESGGGLVQPGGSLRLSCAASGFTFDYYTMGWFRQAPGKEREFVAAIRSSGGLFYADSVKGRFTISADNSKNTAYLQMNSLKPEDTAVYYCAAYLDGYSGSWGQGTLVTVSS
B13: variant 5-52 (Fc fusion)
VHH: EVQLVESGGGLVQPGGSLRLSCAASGEKFSDHWMGWFRQAPGKEREFVATITFSGARTAYADSVKGRFTISADNSKNTAYLQMNSLKPEDTAVYYCAALIKPSSTDRIFEEWGQGTLVTVSS
B14: variant 5-29 (Fc fusion)
VHH: EVQLVESGGGLVQPGGSLRLSCAASGFTFDDYPMGWFRQAPGKEREGVASVLRGGYTWYADSVKGRFTISADNSKNTAYLQMNSLKPEDTAVYYCAKDWATGLAWGQGTLVTVSS
B15: variant 5-26 (Fc fusion)
VHH: EVQLVESGGGLVQPGGSLRLSCAASGRTISSYIMGWFRQAPGKERELVARIYTGGDTIYADSVKGRFTISADNSKNTAYLQMNSLKPEDTAVYYCAARTSYNGRYDYIDDYSWGQGTLVTVSS
B16: variant 5-15 (Fc fusion)
VHH: EVQLVESGGGLVQPGGSLRLSCAASGFTFDGAAMGWFRQAPGKEREFVATIRWTNSTDYADSVKGRFTISADNSKNTAYLQMNSLKPEDTAVYYCARGRYGIVERWGQGTLVTVSS
B17: variant 5-59 (Fc fusion)
VHH: EVQLVESGGGLVQPGGSLRLSCAASGLTFSLYRMCWFRQAPGKEREEVSCISNIDGSTYYADSVKGRFTISADNSKNTAYLQMNSLKPEDTAVYYCAADLLGDSDYEPSSGFGWGQGTLVTVSS
B18: variant 5-47 (Fc fusion)
VHH: EVQLVESGGGLVQPGGSLRLSCAASGFTFGSYDMGWFRQAPGKEREFVTAINWSGARTAYADSVKGRFTISADNSKNTAYLQMNSLKPEDTAVYYCAARSVYSYEYNWGQGTLVTVSS
B19: variant 5-63 (Fc fusion)
VHH: EVQLVESGGGLVQPGGSLRLSCAASGFSLDYYDMGWFRQAPGKEREFVAALGWSGGSTDYADSVKGRFTISADNSKNTAYLQMNSLKPEDTAVYYCAAGNGGRYGIVERWGQGTLVTVSS
B20: variant 5-49 (Fc fusion)
VHH: EVQLVESGGGLVQPGGSLRLSCAASGRTSTVNGMGWFRQAPGKEREFVASISQSGAATAYADSVKGRFTISADNSKNTAYLQMNSLKPEDTAVYYCAADRTYSYSSTGYYWGQGTLVTVSS
B21: variant 5-55 (Fc fusion)
VHH: EVQLVESGGGLVQPGGSLRLSCAASGIDVNRNAMGWFRQAPGKEREFVAAITWSGGWRYYADSVKGRFTISADNSKNTAYLQMNSLKPEDTAVYYCATTFGDAGIPDQYDFGWGQGTLVTVSS
B22: variant 5-21 (Fc fusion)
VHH: EVQLVESGGGLVQPGGSLRLSCAASGGTFTTYHMGWFRQAPGKEREFVAHISTGGATNYADSVKGRFTISADNSKNTAYLQMNSLKPEDTAVYYCATFPAIVTDSDYDLGNDWGQGTLVTVSS
B23: variant 5-22 (Fc fusion)
VHH: EVQLVESGGGLVQPGGSLRLSCAASGFTFNVFAMGWFRQAPGKEREFVAAINWSDSRTDYADSVKGRFTISADNSKNTAYLQMNSLKPEDTAVYYCASGSDNRARELSRYEYVWGQGTLVTVSS
B24: variant 5-23 (Fc fusion)
VHH: EVQLVESGGGLVQPGGSLRLSCAASGSIFSIDVMGWFRQAPGKEREFVAAISWSGESTLYADSVKGRFTISADNSKNTAYLQMNSLKPEDTAVYYCAAFDGYSGSDWGQGTLVTVSS
B25: variant 5-3 (Fc fusion)
VHH: B24 VHH with A50G, E56D, S103T
B26: variant 5-50 (Fc fusion)
VHH: EVQLVESGGGLVQPGGSLRLSCAASGFSLDYYGMGWFRQAPGKEREFVAAITSGGTPHYADSVKGRFTISADNSKNTAYLQMNSLKPEDTAVYYCASAYNPGIGYDWGQGTLVTVSS

Each binder was assayed against T1, Acro SARS-CoV-2 (COVID-19) S1 protein (SARS-CoV-2, UniProt P0DTC2 16-685) (assay: SPR).
T1 construct: also called SARS-CoV-2 S1

Binder	Kd
B1	346 nM
B2	50.2 nM
B3	92.9 nM
B4	25.5 nM
B5	54.3 nM
B6	29.4 nM
B7	22.4 nM
B8	3630 nM
B9	118 nM
B10	116 nM
B11	40 nM
B12	37.5 nM
B13	99 nM
B14	42.4 nM
B15	21800 nM
B16	96.2 nM
B17	113 nM
B18	27.7 nM
B19	10.5 nM
B20	74.5 nM
B21	63.5 nM
B22	1070 nM
B23	109 nM
B24	84.8 nM
B25	64.6 nM
B26	60.5 nM
